Experimental data as given in publication PMC2680759, “Non-Invasive Molecular Imaging of Fibrosis Using a Collagen-Targeted Peptidomimetic of the Platelet Collagen Receptor Glycoprotein VI” (PLoS ONE, 2009).

Tested on: fibrotic myocardial infarction scar
Assay type: in vivo, rat
Settings: rat, in vivo
Method: Myocardial infarction of the left ventricle was induced in rats as follows. Male Wistar rats (CERJ, France) were housed in a controlled environment and fed with a standard rat chow. Myocardial infarction of the left ventricle was induced by ligature of the left descending coronary artery performed under general anesthesia [1 mL.kg^−1 i.p. ketamine (Imalgene 500, Merial) and 0.5 mL.kg^−1 i.p. xylazine (Rompun, Bayer)] and positive pressure ventilation, as described. This protocol was performed under a permit from the French Veterinary Services Directorate.
Two types of control animals were used: healthy rats, and healthy rats which had undergone a simple throracotomy (sham-operated). ^99mTc-biotin-collagelin blood kinetics and biodistribution were investigated by counting blood samples (taken from a jugular catheter) for 6 h after i.v. injection, and organs (extracted after sacrifice) 2 h after injection in a gamma-counter, together with aliquots of the injected preparation (CobraII, Packard, Meriden, USA). Ex vivo myocardial labeling and isotopic imaging were performed 4 weeks after the coronary ligature (or throracotomy), when the lesions had had the time to heal.
For in vivo experiments, radiotracers (70 MBq) were administered i.v. to anesthetized animals (pentobarbital i.p. 6 mg/100 g BW, Ceva Santé Animale, France) within 2 h of radiolabeling. Scintigraphic images were obtained 0–2 h, 4 h, 6 h, 10 h and 24 h after injecting ^99mTc-streptavidin-biotin peptides and 0–3 h after injecting ^99mTc-biotinylated peptides. Planar and tomographic 1-h acquisitions were performed using a dedicated small animal γIMAGER system (Biospace Lab, Paris, France) equipped with 2 parallel low-energy high-resolution collimators (matrix 128×128, 15% energy window centered on 140 KeV). Tracer uptake in the left cardiac area was assessed visually. Two regions of interest were drawn on the scintigrams, over the heart and over the right lung. The mean activity (cpm) per pixel was determined in each region of interest. Then heart-to-lung activity ratios (HLR) were calculated on both planar and transversal tomographic images.

## CSCC[C@@H]1NC(=O)[C@H](C(C)C)NC(=O)[C@H](CCCNC(=N)N)NC(=O)CNC(=O)[C@@H]2CCCN2C(=O)[C@@H](NC(=O)CNC(=O)[C@H](CO)NC(=O)CNC(=O)[C@H](CO)NC(=O)CCCC[C@@H]2SC[C@@H]3NC(=O)N[C@@H]32)CSSC[C@@H](C(N)=O)NC(=O)[C@@H]2CCCN2C(=O)CNC(=O)[C@H](CCC(=O)O)NC(=O)[C@H](CC(=O)O)NC(=O)[C@H](CC(=O)O)NC(=O)CNC(=O)[C@H](CC(C)C)NC(=O)[C@H](Cc2c[nH]cn2)NC(=O)[C@H](CC(C)C)NC(=O)CNC(=O)[C@H](Cc2c[nH]cn2)NC1=O [collagelin]
  Accumulation of the tracer in the skin of the animals: did not notice any accumulation
  Uptake in bone marrow: low level
